Measurements taken from patent US20200270588A1, “GLUCOSYL TRANSFERASE POLYPEPTIDES AND METHODS OF USE” (Syngenta Participations AG, priority 2017, published 2020).
Residue numbers refer to the chain shown, from its start. Names and notes keep the numbering of the source.

T1: Zea mays bx9 glucosyl transferase (C-terminally his tagged SEQ ID NO: 1) (Zea mays, UniProt B4G072)
T1 construct: His tag (C); made in house; host or cells: E. coli BL21 (DE3), pET24a
T1 sequence (B4G072 1-462): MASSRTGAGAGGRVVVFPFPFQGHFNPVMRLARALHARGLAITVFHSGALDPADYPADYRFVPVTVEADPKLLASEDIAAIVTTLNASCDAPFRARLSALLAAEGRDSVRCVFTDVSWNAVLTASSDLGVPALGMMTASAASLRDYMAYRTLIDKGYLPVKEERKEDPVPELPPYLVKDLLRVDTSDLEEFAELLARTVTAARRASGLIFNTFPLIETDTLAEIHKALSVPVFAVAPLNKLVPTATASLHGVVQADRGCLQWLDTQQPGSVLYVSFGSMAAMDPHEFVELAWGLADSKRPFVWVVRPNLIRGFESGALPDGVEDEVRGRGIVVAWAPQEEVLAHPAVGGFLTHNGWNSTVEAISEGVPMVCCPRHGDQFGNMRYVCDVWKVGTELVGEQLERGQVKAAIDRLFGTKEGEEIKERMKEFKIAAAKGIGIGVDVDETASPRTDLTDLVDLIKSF

B1: I363L: bx9 SEQ ID NO:1 mutant (protein)
chain: T1 sequence (B4G072 1-462) with I363L
modifications: Zea mays
B2: A202T: bx9 SEQ ID NO:1 mutant (protein)
chain: T1 sequence (B4G072 1-462) with A202T
modifications: Zea mays
B3: G376L: bx9 SEQ ID NO:1 mutant (protein)
chain: T1 sequence (B4G072 1-462) with G376L
modifications: Zea mays
B4: L143M: bx9 SEQ ID NO:1 mutant (protein)
chain: T1 sequence (B4G072 1-462) with L143M
modifications: Zea mays
B5: T220W: bx9 SEQ ID NO:1 mutant (protein)
chain: T1 sequence (B4G072 1-462) with T220W
modifications: Zea mays
B6: L143Y: bx9 SEQ ID NO:1 mutant (protein)
chain: T1 sequence (B4G072 1-462) with L143Y
modifications: Zea mays
B7: T220H: bx9 SEQ ID NO:1 mutant (protein)
chain: T1 sequence (B4G072 1-462) with T220H
modifications: Zea mays
B8: T220F: bx9 SEQ ID NO:1 mutant (protein)
chain: T1 sequence (B4G072 1-462) with T220F
modifications: Zea mays
B9: T220P: bx9 SEQ ID NO:1 mutant (protein)
chain: T1 sequence (B4G072 1-462) with T220P
modifications: Zea mays
B10: G376M: bx9 SEQ ID NO:1 mutant (protein)
chain: T1 sequence (B4G072 1-462) with G376M
modifications: Zea mays
B11: I363M: bx9 SEQ ID NO:1 mutant (protein)
chain: T1 sequence (B4G072 1-462) with I363M
modifications: Zea mays
B12: V199M: bx9 SEQ ID NO:1 mutant (protein)
chain: T1 sequence (B4G072 1-462) with V199M
modifications: Zea mays
B13: F19M: bx9 SEQ ID NO:1 mutant (protein)
chain: T1 sequence (B4G072 1-462) with F19M
modifications: Zea mays
B14: A202S: bx9 SEQ ID NO:1 mutant (protein)
chain: T1 sequence (B4G072 1-462) with A202S
modifications: Zea mays

Biological target: T1, Zea mays bx9 glucosyl transferase (C-terminally his tagged SEQ ID NO: 1)
Test: UDP-Glo glucosyl transferase assay, purified enzyme
Assay type: biochemical
Conditions: 0.5 mM UDP-glucose, 25 C, pH 7.5; DMSO reagent blank as control
Procedure: Glucosyl transferase activity is assayed via measurement of acceptor substrate-dependent production of UDP from ultrapure UDP-glucose using the Promega UDP-Glo™ method and according to the manufacturer's instructions. Assays are run in 96 well microtiter plates.
Enzyme, typically at a stock concentration of ˜2 mg/ml is diluted to an appropriate concentration in 50 mM K^+ Hepes buffer at pH7.5 containing 0.5 mg/mL bovine serum albumin (BSA) and 5 ul aliquots of this diluted enzyme added to each well of a Perkin Elmer white ½ area 96 well plate. […] Assays are run for an appropriate time (usually 10 to 60 min) so that the amount of UDP formed lies within the most nearly linear part of the UDP standard curve and are stopped with the addition and mixing of 25 ul UDP-Glo™ detection reagent (prepared as described below). Plates are then incubated at room temperature for 60 minutes and then read in a luminescence plate reader (Perkin Elmer Envision 2130 Multilabel Reader). A UDP standard curve is run alongside each set of assays and reagent blank control assays run with DMSO in place of test herbicide. Typically, 300 pmol of UDP corresponds to a Relative Luminescence Unit (RLU) reading of about 1.5E7 and the response curve between 0 and 600 pmol is fitted to a polynomial function (see for example FIG. 2).
The UDP-Glo™ reagents are made up and used according to the manufacturer's instructions. Thus, Nucleotide Detection Buffer and ATP are combined to make nucleotide detection reagent (NDR) dispensed into aliquots and frozen to be freshly thawed before use.
Km and kcat values in respect of UDP-glucose are derived by carrying out experiments to measure initial rates over a suitable range of concentrations of UDP glucose out at a fixed near saturating concentration of acceptor substrate. Best fit values of kcat, Km and kcat/Km are obtained by direct fitting of the data to the Michaelis-Menten equation using Graphpad Prism™ software.

Molecule	kcat [s⁻¹]
COc1ccc2c(c1)OC(O)C(=O)N2O (centres unmarked) [DIMBOA, 2,4-dihydroxy-7-methoxy-1,4-benzoxazin-3-one]	20.82

System: not listed separately
Test: UDP luminescence plate assay of E. coli extracts, saturation mutants of SEQ ID NO: 1, herbicide V
Assay type: biochemical, Zea mays
Conditions: improvement factor relative to w/t bx9 = 1.0, rounded to nearest 0.5; extract activity basis; compound V

Molecule	Most Preferred amino acid substitutions and (IF) based on RLU/min/ul	Preferred amino acid substitutions and (IF) based on RLU/min/ul
B1	L,M(3.0)	
B2		T,I,V,L,F(1.5)
B3	L(2.0)	
B4		M,Y(1.0)
B5	3.5	
B6		M,Y(1.0)
B7	H,P(4.0)	
B8	3.5	
B9	H,P(4.0)	
B10		C,M(1.0)
B11	L,M(3.0)	
B12		M,N(1.0)
B13		M(1.0)
B14		S,I,C,M(1.0)

System: not listed separately
Test: UDP luminescence plate assay of E. coli extracts, mutants of SEQ ID No: 1, 2 mM metribuzin
Assay type: biochemical, Zea mays
Conditions: 2 mM metribuzin
Method in brief: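 Extracts of E. coli BL21 DE3 expressing C-terminally His-tagged SEQ ID NO:1 variants incubated with 2 mM metribuzin; UDP formed read by UDP-Glo luminescence against a UDP standard curve, with optional 95 C stop. Mutants ranked by metribuzin/DMSO signal ratio and signal increase over wild-type bx9.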

Molecule	SIGNAL: metribuzin signal of mutant divided by metribuzin signal of w/t bx9
B13	0.86

Same assay, conditions: 2 mM metribuzin vs DMSO control, same mutant

Molecule	RATIO of the metribuzin signal to the DMSO signal
B3	0.99
B4	1.04
B10	1.13
B11	0.90
B12	1.02
B14	0.94

Same assay, conditions: 2 mM metribuzin; H24A null background 1.00E+05 not subtracted

Molecule	luminescence signal with metribuzin
B13	1.07E+05

Same assay, conditions: 2 mM metribuzin; relative to bx9 w/t

Molecule	SIGNAL: metribuzin signal of mutant divided by the signal of w/t bx9
B1	1.24
B2	0.93
B3	1.27
B4	1.02
B5	1.59
B6	1.06
B7	1.82
B8	2.22
B9	1.57
B10	1.13
B11	1.67
B12	0.92
B13	0.99
B14	0.91

Same assay, conditions: mutants of SEQ ID No: 1; DMSO in place of metribuzin (background UDP-glucose hydrolysis)

Molecule	luminescence signal in the DMSO control
B1	4.00E+05
B2	2.52E+05
B3	3.59E+05
B4	2.74E+05
B5	4.99E+05
B6	2.77E+05
B7	5.47E+05
B8	7.87E+05
B9	5.28E+05
B10	2.80E+05
B11	5.22E+05
B12	2.53E+05
B13	1.92E+05
B14	2.70E+05

Same assay, conditions: mutants of SEQ ID No: 1 in E. coli extracts; 2 mM metribuzin; UDP luminescence

Molecule	luminescence signal observed with 2 mM metribuzin
B1	3.47E+05
B2	2.61E+05
B3	3.56E+05
B4	2.86E+05
B5	4.44E+05
B6	2.98E+05
B7	5.08E+05
B8	6.21E+05
B9	4.40E+05
B10	3.15E+05
B11	4.68E+05
B12	2.58E+05
B13	2.76E+05
B14	2.53E+05
